Assay results taken from US20240002497A1 (Merck Sharp & Dohme, published 2024).
Where two headings read alike, the source gives them in different places. Blank lines part the entries; values can stand above or below the binder they belong to.

Key:
[1] = molecular target: T1, huNav1.7α (human Nav1.7 alpha subunit, expressed without β subunits) (human, UniProt Q15858 1-1988); experiment: binding FACS, HEKa cells
T1 construct: also called HEK293 human Nav1.7α; HEKa Nav1.7α

[2] = molecular target: T2, huNav1.7α + β1 (human Nav1.7α co-expressed with Navβ1) (human, UniProt Q15858 1-1988; Q07699 19-218); experiment: binding FACS, HEKa/β1 cells
T2 construct: also called HEK293 human Nav1.7α + β1; HEKa/β1 Nav1.7α

[3] = molecular target: T3, huNav1.7α + β1-β2-β3 (human Nav1.7α co-expressed with Navβ1, Navβ2 and Navβ3) (human); experiment: binding FACS, HEK FlpIn cells
T3 construct: also called huNav1.7-beta1-beta2-beta3

[4] = molecular target: huNav1.7α + β1 (human); experiment: cell-based or functional assay
[5] = molecular target: huNav1.7α + β1 (human); experiment: cell-based or functional assay; remark: listed apart in the source
[6] = molecular target: T4, huNav1.7α+β1 (human, UniProt Q15858 1-1988; Q07699 19-218); experiment: cell-based or functional assay
[7] = molecular target: T4, huNav1.7α+β1; experiment: binding FACS, HEKa/β1 cells
Method in brief: (§1)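 Flow cytometry read-out of anti-Flag signal on propidium iodide-negative cells measured ISVD binding. Purified FLAG3-tagged ISVD, diluted in PBS with 10% FBS and NaN₃, was applied to the cells for 30 minutes at 4° C.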

[8] = molecular target: T5, huNav1.7α (human, UniProt Q15858 1-1988); experiment: binding FACS, HEKa cells
T5 construct: HEK cells expressing the α subunit alone; also called HEKa; HEK huNav1.7α
Method in brief: as §1

[9] = molecular target: T6, huNav1.7α+β1-β2-β3 (human, UniProt Q15858 1-1988; Q07699 19-218; O60939 30-215; Q9NY72 23-215); experiment: binding FACS, HEK FlpIn cells
T6 construct: 5N11S variant; also called huNav1.7-beta1-beta2-beta3; huNav1.7α+Navβ1-Navβ2-Navβ3

[10] = molecular target: T7, huNav1.7α + β1 (human); experiment: binding FACS, HEK
T7 construct: HEK293 cells; also called huNav1.7-beta1; huNav1.7-β1

[11] = molecular target: T8, huNav1.7α (human, UniProt Q15858 1-1988); experiment: binding FACS, HEK
T8 construct: HEK cells expressing the α subunit without β subunits; also called huNav1.7 (alpha-subunit); Human Nav1.7α

[12] = molecular target: T7, huNav1.7α + β1; experiment: cell-based or functional assay; remark: listed apart in the source
[13] = molecular target: T9, huNav1.7α + β1-β2-β3 (human, UniProt Q15858 1-1988; A5A6L6 19-218; O60939 30-215; Q2KI11 23-215); experiment: cell-based or functional assay
[14] = molecular target: T8, huNav1.7α; experiment: cell-based or functional assay
[15] = molecular target: T7, huNav1.7α + β1; experiment: competition FACS vs EC25 of F103275B05(N93R), HEK
[16] = molecular target: T8, huNav1.7α; experiment: competition FACS vs EC25 of F103275B05(N93R), HEK
[17] = molecular target: T9, huNav1.7α + β1-β2-β3; experiment: competition FACS vs EC25 of F103275B05(N93R), CHO FlpIn
[18] = molecular target: T9, huNav1.7α + β1-β2-β3; experiment: competition FACS vs EC25 of F103275B05(N93R), HEK FlpIn
[19] = molecular target: T10, rhNav1.7α + β1-β2-β3 (rhesus monkey); experiment: competition FACS vs EC40 of F103275B05(N93R), CHO FlpIn
T10 construct: also called rhNav1.7-beta1-beta2-beta3; rhNav1.7-β1-β2-β3

Bmax [1]: 100%
EC50 [1]: 2.8 nM
EC50 [2]: 1.9 nM
EC50 [3]: 2.9 nM
B1: F010302307 (VHH)
VHH: EVQLVESGGGVVQPGGSLRLSCAASGRILRIGYMRWYRQAPGKQREFVARITDDSATGYADSVKGRFTISRDAAKNTVYLQMNSLRPEDTALYYCEALVTASVRGGSIHSGTYWGQGTLVTVSS
notes: also called F0103387G05(L11V, A14P, D23A, H37Y, G40A, A41P, D58G, N73A, N82bS, N83R, V89L, R105Q)

Bmax [1]: 100%
EC50 [1]: 2.2 nM
EC50 [2]: 1.5 nM
EC50 [3]: 2.3 nM
B2: F010302309 (VHH)
VHH: EVQLVESGGGVVQPGGSLRLSCAASGRILRIGYMRWYRQAPGKQREFVARITDDSATGYADSVKGRFTISRDQAKNTVYLQMNSLRPEDTALYYCEALVTASVRGGSIHSGTYWGQGTLVTVSS
notes: also called F0103387G05(L11V, A14P, D23A, H37Y, G40A, A41P, D58G, N73Q, N82bS, N83R, V89L, R105Q)

Bmax [1]: 100%
EC50 [1]: 1.8 nM
EC50 [2]: 1.3 nM
EC50 [3]: 2 nM
B3: F010302308 (VHH)
VHH: EVQLVESGGGVVQPGGSLRLSCAASGRILRIGYMRWYRQAPGKQREFVARITDDSATGYADSVKGRFTISRDYAKNTVYLQMNSLRPEDTALYYCEALVTASVRGGSIHSGTYWGQGTLVTVSS
notes: also called F0103387G05(L11V, A14P, D23A, H37Y, G40A, A41P, D58G, N73Y, N82bS, N83R, V89L, R105Q)

Qpatch IC50 [4]: 8 nM
B4: F010301558 (VHH)
VHH: EVQLVESGGGLVQAGGSLRLSCAASGRILRIGYMRWHRQGAGKQREFVARITGDSATGYADSVKGRFTISRDNAKNTVYLQMNNLNPEDTAVYYCEALVTASVRGGSIHSGTYWGRGTLVTVSS

Qpatch IC50 [4]: 32 nM
B5: F010302391 (VHH)
VHH: EVQLVESGGGVVQPGGSLRLSCAASGRILRIGYMRWYRQAPGKQREFVARITGGSATGYADSVKGRFTISRDNAKNTVYLQMNSLRPEDTALYYCEALVTASVRGGSIHSGTYWGQGTLVTVSS

Qpatch IC50 [4]: 5 nM
B6: F010301563 (VHH)
VHH: EVQLVESGGGLVQAGGSLRLSCAASGRILRIGYMRWHRQGAGKQREFVARITDDSATGYADSVKGRFTISRDNAKNTVYLQMNNLNPEDTAVYYCEALVTASVRGGSIHSGTYWGRGTLVTVSS

Qpatch IC50 [4]: 18 nM
B7: F010301566 (VHH)
VHH: EVQLVESGGGLVQAGGSLRLSCDASGRILRIGYMRWHRQGAGKQREFVARITDGSATGYADSVKGRFTISRDNAKNTVYLQMNNLNPEDTAVYYCEALVTASVRGGSIHSGTYWGRGTLVTVSS

Qpatch IC50 [4]: 12 nM
B8: F010301559 (VHH)
VHH: EVQLVESGGGLVQAGGSLRLSCAASGRILRIGYMRWHRQGAGKQREFVARITDGSATGYADSVKGRFTISRDNAKNTVYLQMNNLNPEDTAVYYCEALVTASVRGGSIHSGTYWGRGTLVTVSS

Qpatch IC50 [5]: 63 nM
B12: F010301191 (VHH)
VHH: EVQLVESGGGLVQPGGSLRLSCAASGMLFNRNTQGWYRQAPGKQRELVAFIFSGGWTNYNDSVKGRFTISRDNAKRTMYLQMNSLKPEDSAIYYCALSVYQGQGTLVTVSS

IC50 [M], electrophysiology [6]: 6.3e-08 M
Bmax relative to '535 [7]: 119%
EC50 [7]: 4.1 nM
B16: F010301191 (VHH)
VHH: EVQLVESGGGLVQPGGSLRLSCAASGMLFNRNTQGWYRQAPGKQRELVAFIFSGGWTNYNDSVKGRFTISRDNAKRTMYLQMNSLKPEDSAIYYCALSVYQGQGTLVTVSS
notes: vs F0103265A11: A31R, Y56W, V60N, S93A, R101V, L103Q

The remaining lines, values behind:

B9: F010301162 (VHH)
VHH: EVQLVESGGGLVQPGGSLRLSCAASGMLFNRNTQGWYRQAPGKQRELVAFIFSGGWTNYNDSVKGRFTISRDNAKRTMYLQMNSLKPEDSAIYYCSLSRYQGQGTLVTVSS
Qpatch IC50 [5]: 32 nM

B10: F010301129 (VHH)
VHH: EVQLVESGGGLVQPGGSLRLSCAASGMLFNANTQGWYRQAPGKQRELVAFIFSGGWTNYNDSVKGRFTISRDNAKRTMYLQMNSLKPEDSAIYYCALSRYQGQGTLVTVSS
Qpatch IC50 [5]: 126 nM

B11: F010301090 (VHH)
VHH: EVQLVESGGGLVQPGGSLRLSCAASGMLFNANTQGWYRQAPGKQRELVAFIFSGGWTTYNDSVKGRFTISRDNAKRTMYLQMNSLKPEDSAIYYCSLSRYQGQGTLVTVSS
Qpatch IC50 [5]: 22 nM

B13: F010301080 (VHH)
VHH: EVQLVESGGGLVQPGGSLRLSCAASGMLFNANTQGWYRQAPGKQRELVAFIFWGGYVTYNDSVKGRFTISRDNAKRTMYLQMNSLKPEDSAIYYCSLSRYLGQGTLVTVSS
Qpatch IC50 [5]: 14 nM

B14: F010301162 (VHH)
VHH: EVQLVESGGGLVQPGGSLRLSCAASGMLFNRNTQGWYRQAPGKQRELVAFIFSGGWTNYNDSVKGRFTISRDNAKRTMYLQMNSLKPEDSAIYYCSLSRYQGQGTLVTVSS
notes: vs F0103265A11: A31R, Y56W, V60N, L103Q
IC50 [M], electrophysiology [6]: 3.2e-08 M
Bmax relative to '535 [7]: 115%
EC50 [7]: 3.8 nM

B15: F010301129 (VHH)
VHH: EVQLVESGGGLVQPGGSLRLSCAASGMLFNANTQGWYRQAPGKQRELVAFIFSGGWTNYNDSVKGRFTISRDNAKRTMYLQMNSLKPEDSAIYYCALSRYQGQGTLVTVSS
notes: vs F0103265A11: Y56W, V60N, S93A, L103Q
IC50 [M], electrophysiology [6]: 1.3e-07 M
Bmax relative to '535 [7]: 103%
EC50 [7]: 3.6 nM

B17: F010301090 (VHH)
VHH: EVQLVESGGGLVQPGGSLRLSCAASGMLFNANTQGWYRQAPGKQRELVAFIFSGGWTTYNDSVKGRFTISRDNAKRTMYLQMNSLKPEDSAIYYCSLSRYQGQGTLVTVSS
notes: vs F0103265A11: Y56W, N58T, V60N, L103Q
IC50 [M], electrophysiology [6]: 2.2e-08 M
Bmax relative to '535 [7]: 102%
EC50 [7]: 4.8 nM

B18: F010301080 (VHH)
VHH: EVQLVESGGGLVQPGGSLRLSCAASGMLFNANTQGWYRQAPGKQRELVAFIFWGGYVTYNDSVKGRFTISRDNAKRTMYLQMNSLKPEDSAIYYCSLSRYLGQGTLVTVSS
notes: also called F0103265A11(S53W, T57V, N58T, V60N)
IC50 [M], electrophysiology [6]: 1.4e-08 M
EC50 [8]: 26 nM
Bmax relative to '535 [7]: 122%
EC50 [7]: 3 nM
EC50 [9]: 5.1 nM

B19: 65ASP (Fc fusion)
chain: EVQLVESGGGLVQPGGSLRLSCAASGSIFNINSMAWYRRAPGKQRELVASSTNGGSTNYADSVKGRFTISRDNAKRVYLQMNSLTPEDTAVYYCNALLQPSIYDISRTYWGQGTLVTVSS
notes: also called F0103275B05-5GS-Fc; not shown: 5GS linker; Fc moiety
EC50 [10]: 45 nM
EC50 [11]: 21 nM
Qpatch IC50 [M], HEK cells [12]: 1.2e-07 M

B20: F010300468 (VHH)
VHH: EVQLVESGGGLVQPGGSLRLSCAASGSIFNINSMAWYRRAPGKQRELVASSTNGGSTNYADSVKGRFTISRDNAKRVYLQMNSLTPEDTAVYYCRALLQPSIYDISRTYWGQGTLVTVSS
notes: also called F0103275B05(N93R) + FLAG3-HIS6; F103275B05(N93R) + FLAG3-HIS6
Qpatch IC50 [13]: 99 nM
Qpatch IC50 [14]: 57 nM
IC50 [15]: 67 nM
IC50 [16]: 49 nM
IC50 [17]: 130 nM
IC50 [18]: 97 nM
IC50 [19]: 77 nM
